Test results reported in paper PMC10790385, “Intracellular delivery of Parkin-RING0-based fragments corrects Parkin-induced mitochondrial dysfunction through interaction with SLP-2” (Journal of Translational Medicine, 2024).

What was measured:
[1] = target: T1, recombinant human Parkin fragment aa 138-465 (human, UniProt O60260 138-465); assay: far-Western, overlay or dot blot; 2 µg recombinant Parkin proteins (aa 1-465 and aa 138-465) separated by SDS-PAGE and transferred to immobilon membrane, incubated for 6 h with 80 µg recombinant SLP-2, probed with anti-SLP-2 antibody; settings: both partners purified
T1 construct: SUMO cleaved with ULP-1 protease; source: E. coli One Shot BL21(DE3)pLysS, purified (IMAC, nondenaturing)
T1 sequence (looked up): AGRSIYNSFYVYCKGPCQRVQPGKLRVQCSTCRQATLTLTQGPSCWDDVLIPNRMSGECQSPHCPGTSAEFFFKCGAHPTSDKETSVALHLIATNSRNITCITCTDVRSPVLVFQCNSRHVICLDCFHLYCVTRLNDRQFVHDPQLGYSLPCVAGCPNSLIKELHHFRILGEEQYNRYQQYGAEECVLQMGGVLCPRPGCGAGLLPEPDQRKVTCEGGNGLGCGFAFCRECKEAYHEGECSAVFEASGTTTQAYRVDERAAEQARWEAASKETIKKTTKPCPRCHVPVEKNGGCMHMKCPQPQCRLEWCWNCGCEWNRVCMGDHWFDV

[2] = target: T2, recombinant full-length human Parkin protein (aa 1-465) (human, UniProt O60260 1-465); assay: far-Western, overlay or dot blot; 2 µg recombinant SLP-2 separated by SDS-PAGE and transferred to a membrane, incubated with 60 µg recombinant Parkin, probed with anti-Parkin antibody; settings: both partners purified
T2 construct: SUMO cleaved with ULP-1 protease; also called recombinant Parkin; source: E. coli One Shot BL21(DE3)pLysS, purified (IMAC, nondenaturing)

binding result [1]: binds | binding result [2]: binds
B1: recombinant human SLP-2 protein (aa 41-356) (domain or fragment, UniProt Q9UJZ1 41-356, looked up)
chain: VPQQEAWVVERMGRFHRILEPGLNILIPVLDRIRYVQSLKEIVINVPEQSAVTLDNVTLQIDGVLYLRIMDPYKASYGVEDPEYAVTQLAQTTMRSELGKLSLDKVFRERESLNASIVDAINQAADCWGIRCLRYEIKDIHVPPRVKESMQMQVEAERRKRATVLESEGTRESAINVAEGKKQAQILASEAEKAEQINQAAGEASAVLAKAKAKAEAIRILAAALTQHNGDAAASLTVAEQYVSAFSKLAKDSNTILLPSNPGDVTSMVAQAMGVYGALTKAPVPGTPDSLSSGSSRDVQGTDASLDEELDRVKMS
notes: Stomatin-like protein 2, human, aa 41-356; SUMO cleaved with ULP-1 protease; also called recombinant SLP-2; source: E. coli One Shot BL21(DE3)pLysS, purified (IMAC, nondenaturing)
